T1: human CD70, recombinant, N-terminally biotinylated (residues 39-193) (human, UniProt P32970 39-193, N-terminal biotin)
T1 construct: range 39-193; the same entry is used there; also called biotinylated human CD70; CD70 biotin
T1 sequence (looked up): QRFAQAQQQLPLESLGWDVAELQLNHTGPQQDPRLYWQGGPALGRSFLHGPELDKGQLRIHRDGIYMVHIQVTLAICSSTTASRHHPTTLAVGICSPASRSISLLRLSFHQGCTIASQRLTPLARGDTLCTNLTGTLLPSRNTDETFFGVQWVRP

T2: CD70 on cells (CHO-CD70, JVM-3, U266, Raji, THP-1, T cells) (human, UniProt P32970 1-193)
T2 construct: whole, on cells; also called cell-surface CD70
T2 sequence (looked up): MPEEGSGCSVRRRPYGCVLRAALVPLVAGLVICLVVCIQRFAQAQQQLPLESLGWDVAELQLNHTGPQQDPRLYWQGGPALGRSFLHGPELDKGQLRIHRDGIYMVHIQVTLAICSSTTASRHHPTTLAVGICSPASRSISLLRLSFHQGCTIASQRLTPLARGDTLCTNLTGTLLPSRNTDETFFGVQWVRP


Experiments:
[1] = target: T1, human CD70, recombinant, N-terminally …; assay: SPR
Summary of the method: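 Human scFv antibodies came from panning a naïve human library against the CD70 extracellular domain (aa39-193). Their affinity (Kd) for recombinant, N-terminally biotinylated human CD70 was measured by surface plasmon resonance (SPR) analysis.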

[2] = target: T2, CD70 on cells (CHO-CD70, JVM-3, U266, …); assay: 1.25 µg/mL scFv on JVM-3 cells
Summary of the method: (§1)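 Human scFv antibodies came from panning a naïve human library against the CD70 extracellular domain (aa39-193). Binding was recorded for each tumour cell line, both high CD70 expressors (CHO-CD70, JVM3, U266) and low CD70 expressors (CHO WT, K562). No detection method is stated.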

[3] = target: T2, CD70 on cells (CHO-CD70, JVM-3, U266, …); assay: 1.25 µg/mL scFv on U266 cells
Summary of the method: as §1

[4] = target: T1, human CD70, recombinant, N-terminally …; assay: CD27 blocking ELISA, 3 µM scFv, strep/HRP
[5] = target: T2, CD70 on cells (CHO-CD70, JVM-3, U266, …); assay: 1.25 µg/mL scFv on CHO-CD70 cells
Summary of the method: as §1

[6] = target: T1, human CD70, recombinant, N-terminally …; assay: CD27 blocking ELISA, 3 µM scFv, anti-His/HRP; note: unit not given here
Protocol: Human scFv antibodies binding CD70 were generated by panning a naïve human library with the extracellular domain (aa39-193) of CD70. 53 antibodies were identified. The ability of CD27 to block CD70 binding of the identified antibodies was measured by ELISA using two different assays. In the first assay, CD27 and his-tagged scFv anti-CD70 binders were simultaneously added to surface bound CD70, and the ability of the scFv binders to bind CD70 was detected with anti-His HRP. In the second assay, plate-bound CD70 was pre-incubated with CD27 for 30 minutes, and then additional CD27 and the his-tagged scFv anti-CD70 binder was added. The ability of the scFv binders to bind CD70 was detected with anti-His HRP. FIG. 34 is a schematic of the two different CD27 blocking assays. CD70 affinity was also measured by SPR analysis. scFv antibodies were also tested for their ability to bind tumor cell lines with high (CHO-CD70, JVM3, and U266) and low levels (CHO WT and K562 of CD70 expression. Results for 39 antibodies are shown in Table 1 below.

Row | Kd [1] [nM] | cell binding [2] | cell binding [3] | strep/HRP [4] | cell binding [5] | anti His/HRP [6] | Binder
1 | 180 | 1790 | 2290 | 1.26 | 76200 | 2.28 | 46-TC7-VII-E11 (scFv, His-tagged) scFv: QVQLVQSGGGVVQPGRSLRLSCAASGFTFSSYAMHWVRQAPGKGLEWVAVISYDGSNKYYADSVKGRFTISRDNSKNTLYLQMNSLRAEDTAVYYCARDSSGYYYGSDAFDIWGQGTMVTVSSGGSGGSGGSGGSSYELTQPPSVSVALGQTVRITCQGDSLRSYYASWYQQKPGQAPVLVIYGKNNRPSGIPDRFSGSSSGNTASLTITGAQAEDEADYYCNSRDSSGNPWVFGGGTKVTVL
2 | 332 | 1070 | 947 | 1.52 | 64900 | 0.711 | 61-TC7-IV-H08 (scFv, His-tagged) scFv: QMQLVQSGGGLVQPGRSLRLSCAASGFTFDDYAMHWVRQAPGKGLEWVAVISYDGSNKYYADSVKGRFTISRDNSKNTLYLQMNSLRAEDTAVYYCARSSYDFWSGYPKDMDVWGKGTTVTVSSGGSGGSGGSGGSSSELTQDPAVSVALGQTVRITCQGDSLRSYYASWYQQKPGQAPVLVIYGKNNRPSGIPDRFSGSSSGNTASLTITGAQAEDEADYYCNSRDSSGNHLVVFGGGTKLTVL
3 | 1750 | 50900 | 42900 | 1.45 | 271000 | 2.5 | 15-TC7-I-D07 (scFv, His-tagged) scFv: QVQLQQWGAGLLKPSETLSLTCAVYGGSFSGYYWSWIRQPPGKGLEWIGEINHSGSTNYNPSLKSRVTISVDTSKNQFSLKLSSVTAADTAVYYCARVSRSRGAFDIWGQGTMVTVSSGGSGGSGGSGGSQSALTQPASVSGSPGQSITISCTGTNSDVGAYNYVSWYQQHPGKAPKLMIYEVTNRPSGVSNRFSGSKSGNTASLTISGLQAEDEADYYCSSYTSSGTWVFGGGTKLTVL
4 | 194 | 45200 | 35300 | 1.54 | 286000 | 2 | 62-TC7-V-D08 (scFv, His-tagged) scFv: QVQLQQWGAGLLKPSETLSLTCAVYGGSFSGYYWSWIRQPPGKGLEWIGEINHSGSTNYNPSLKSRVTISVDTSKNQFSLKLSSVTAADTAVYYCARVARGKGAFDIWGQGTMVTVSSGGSGGSGGSGGSQSALTQPASVSGSPGQSITISCTGTSSDVGGYNYVSWYQQHPGKAPKLLIYEVSSRPSGVSNRFSGSKSGNTASLTISGLQAEDEADYYCNSYTNSGSWVFGGGTKVTVL
5 | 209 | 2130 | 1140 | 1.17 | 240000 | 1.46 | 54-TC7-V-D10 (scFv, His-tagged) scFv: QVQLQQWGAGLLKPSETLSLTCAVYGGSFSGYYWSWIRQPPGKGLEWIGEINHSGSTNYNPSLKSRVTISVDTSKNQFSLKLSSVTAADTAVYYCARGGYRSYWYFDLWGRGTLVTVSSGGSGGSGGSGGSQSALTQPASVSGSPGQSITISCTGTSSDVGGYNSVSWYQHHPGKAPKLMIYDVSDRPSGVSDRFSGSKSGNTASLTISGLQAEDEADYYCSSYAGSNNVVFGGGTKVTVL
6 | 535 | 2360 | 6310 | 1.44 | 296000 | 1.5 | 56-TC7-VI-H08 (scFv, His-tagged) scFv: QMQLVQSGAEVKKPGASVKVSCKASGYTFTSYYMHWVRQAPGQGLEWMGIINPSGGSTSYAQKFQGRVTMTRDTSTSTAYMELRSLRSDDTAVYYCARGWETNDAFDIWGQGTMVTVSSGGSGGSGGSGGSQSVLTQPPSVSGAPGQKVTISCSGSNSNVGNHYLSWYQHLPGTAPRLLIFDNNKRPSGIPDRFSGSKSGASATLDITGLQTGDEADYFCGTWDSRLNVWVFGGGTKLTVL
7 | 64.6 | 8050 | 2980 | 0.533 | 430000 | 1.56 | 52-TC7-VIII-C02 (scFv, His-tagged) scFv: QVQLLESGGGVVQPGRSLRLSCAASGFTFSSYGMHWVRQAPGKGLEWVAVISYDGSNKYYADSVKGRFTISRDNSKNTLYLQMNSLRAEDTAVYYCAKGAYYYGSVSGMDVWGQGTTVTVSSGGSGGSGGSGGSSYELTQPVSVSVALGQTARLTCAGNNIGSKNVHWYQQKPSQAPVLVIYNDNIRPNFGIPERFSGSNSGNTATLTISSAQAGDEADYYCQVWDSSTAEVFGGGTKLTVL
8 | 984 | 3570 | 2700 | 1.28 | 87200 | 1.24 | 55-TC4-IX-G04 (scFv, His-tagged) scFv: QVQLLESGGGVVQPGRSLRLSCAASGFTFSSYAMHWVRQAPGKGLEWVAVISYDGSNKYYADSVKGRFTISRDNSKNTLYLQMNSLRAEDTAVYYCARGLGFGSGWYEYVDAFDIWGQGTMVTVSSGGSGGSGGSGGSQSVLTQPASVSGSPGQSITISCTGTSSDVGSYNLVSWYQQHPGKAPKLMIYEVSKRPSGVSNRFSGSKSGNTASLTISGLQAEDEADYYCSSYRSNNTPWVFGGGTKLTVL
9 | 532 | 4260 | 2140 | 1.46 | 170000 | 0.676 | 51-TC7-VIII-G06 (scFv, His-tagged) scFv: QVQLLESGGGLVQPGRSLRLSCAASGFTFDDYAMHWVRQAPGKGLEWVSGITWNSGSIGYADSVKGRFTISRDNAKNSLYLQMNSLRAEDTAVYYCAREVAARPFYYYGMDVWGQGTTVTVSSGGSGGSGGSGGSQSVLTQPPSVSVAPGKTARITCGGNNIGSKSVHWYQQKPGQAPVLVVYDDSDRPSGIPERFSGSNSGNTATLTISGTQAMDEADYYCQAWDSSTVFGGGTKLTVL
10 | 853 | 1640 | 3150 | 1.49 | 163000 | 1.89 | 57-TC7-VII-A03 (scFv, His-tagged) scFv: QVQLQQSGPGLVKASETLSLTCAVSGHSISSSNYWGWIRQPPGKGLEWIGSIYHSGTTYYNPSLKSRVTMSVDTSKNQFSLKLSSVTAADTAVYYCARHGSGDLGYLEYWGQGTLVTVSSGGSGGSGGSGGSSYELTQSPSVSVAPGKTARITCGGNNIGSKSVHWYQQKPGQAPVLVIYYDSDRPSGIPERFSGSNSGNTATLTISRVEAGDEADYYCQVWDSSSDHPVFGGGTKVTVL
11 | 182 | 27400 | 16900 | 1.53 | 1.34e+06 | 1.02 | 38-TC7-V-G06 (scFv, His-tagged) scFv: QMQLVQSGAEVKKPGSSVKVSCKASGGTFSSYAISWVRQAPGQGLEWMGWISAYNGNTNYAQKLQGRVTMTTDTSTSTAYMELRSLRSDDTAVYYCARDDYWGQGTLVTVSSGGSGGSGGSGGSSYELTQPPSVSVAPGKTARITCSGDVLGENYADWYQQKPGQAPELVIYEDSERYPGIPERFSGSTSGNTTTLTISRVLTEDEADYYCLSGDEDNRVFGGGTKLTVL
12 | 279 | 4870 | 11800 | 1.37 | 235000 | 1.84 | 40-TC7-VI-F11 (scFv, His-tagged) scFv: EVQLVESGGGVVQPGRSLRLSCAASGFTFSSYAMHWVRQAPGKGLEWVAVISYDGSNKYYADSVKGRFTISRDNSKNTLYLQMNSLRAEDTAVYYCARDGYGFDYWGQGTLVTVSSGGSGGSGGSGGSSYELTQSPSVSVAPGQTARITCGGNNIGSKSVHWYQQKPGQAPVLVVYDDSDRPSGIPERFSGSNSGNTATLTISRVEAGDEADYYCQVWDSSTPYVFGTGTKLTVL
